Source: patent US20260062479A1
Where a chain is given by its changes, count along the chain named.

B1: parent antibody (murine anti-TIRC7 antibody 17-20, cAb1457) (antibody, V domains shown)
VH: QVQLKQSGPELVKPGASVKMSCKASGYTFTTYVMHWVKQKPGQGLEWIGYINPYNDGTNYNEKFKGKATLTSDKSSSTAYMELSTLTSEDSAVYYCAEFITKTVGGSNWYLDVWGAGTTVTVSS
VL: DIVLTQSPAIMSASPGEKVTMTCSASSSISYIHWFQQKPGTSPKRWIYDTSKLPSGVPARFSGSGSGTSYSLTISSMEAEDAATYYCHQRSSYTWTFGGGTKLEIK
B2: cAB1467-10.0 (antibody, V domains shown)
VH: QVQLVQSGAEVKKPGASVKVSCKASGYTFTTYVMHWVRQAPGKGLEWMGYINPYNDGTNYNEKFKGRVTLTSDKSTSTAYMELSSLRSEDTAVYYCAEFITKTVGGSNWYLDVWGQGTTVTVSS
VL: DIQLTQSPSFLSASVGDRVTITCSASSSISYIHWFQQKPGKAPKRWIYDTSKLPSGVPSRFSGSGSGTEYTLTISSLQPEDFATYYCHQRSSYTWTFGGGTKLEIK
B3: cAB1459-10.0 (antibody, V domains shown)
VH: B2 VH with L70M, S72E, K74T, S77D
VL: B2 VL
B4: cAB1468-10.0 (antibody, V domains shown)
VH: B2 VH
VL: EIVLTQSPATLSLSPGERATLSCSASSSISYIHWYQQKPGQAPRRLIYDTSKLPSGIPARFSGSGSGTDFTLTISSLEPEDFAVYYCHQRSSYTWTFGGGTKLEIK

Target: largest TIRC7 extracellular domain (T-cell immune response cDNA 7) (human) (UniProt Q13488)
Experiment: SPR, Biacore T200, 25 C, TIRC7 domain immobilized on CM5 chip, 1:1 kinetic fit

Binder | Kd [nM] | koff [s⁻¹] | kon [M⁻¹ s⁻¹]
B1 | 0.3 | 0.00013 | 520000
B2 |  |  | 1.24e+06
B3 |  |  | 3.56e+06
B4 |  |  | 1.13e+06
